Reference: patent publication US20140011735A1, “ANTIVIRAL COMPOSITION” (AMRITA THERAPEUTICS LIMITED, priority 2011, published 2014)

B1: MPT63 (protein, UniProt P9WIP1 30-159, looked up)
Immunogenic protein MPT63: AYPITGKLGSELTMTDTVGQVVLGWKVSDLKSSTAVIPGYPVAGQVWEATATVNAIRGSVTPAVSQFNARTADGINYRVLWQAAGPDTISGATIPQGEQSTGKIYFDVTGPSPTIVAMNNGMEDLLIWEP
B2: azurin: 128 amino acid P. aeruginosa protein with anticancer, anti-HIV-1 and antiparasitic activity (protein, UniProt P00282 21-148, looked up)
Azurin: AECSVDIQGNDQMQFNTNAITVDKSCKQFTVNLSHPGNLPKNVMGHNWVLSTAADMQGVVTDGMASGLDKDYLKPDDSRVIAHTKLIGSGEKDSVTFDVSKLKEGEQYMFFCTFPGHSALMKGTLTLK

Assays:
[1] = system: HIV-1 NL4-3; assay: Inhibition of HIV-1 NL4-3 replication in peripheral blood lymphocytes (p24 antigen ELISA); type: cell-based; conditions: FIG. 2, similar to Enfuvirtide (T20)
[2] = system: HIV-1 Env SF162 mediated fusion of HeLa effector cells with HEK293-CCR5 target cells expressing human CD4; type: cell-based; conditions: β-Gal activity at 570 nm after 2.5 h at 37° C.; FIG. 4
[3] = system: HIV-1 virus, three clades (European, Indian and African origin); conditions: three clades of HIV-1; due to interference in entry of HIV-1 to host cells; cited from earlier work

Row | Molecule | EC50 [1] [nM] | inhibition of cell to cell fusion compared to positive control Enfuvirtide (T20) [2] | growth inhibition of HIV-1 [3] [%]
1 | B1 | 0.01 | more inhibition of cell to cell fusion | 
2 | B2 |  |  | ≥ 90
